PMC1762375

Key:
Assay in all cases: two-hybrid; yeast strains L40 or PJ69-4A; β-galactosidase quantitative liquid assays, fold activation with respect to the empty vector, at least four independent protein extracts
[1] = target: Cno NH, LexA bait fusion (Drosophila)
[2] = target: Cno-MP, LexA bait fusion (Drosophila) (UniProt Q24279)
[3] = target: DSH-FLN, LexA bait fusion (Drosophila) (UniProt P51140)
Chain of UniProt P51140 (P51140 whole entry, the tested form may be a part): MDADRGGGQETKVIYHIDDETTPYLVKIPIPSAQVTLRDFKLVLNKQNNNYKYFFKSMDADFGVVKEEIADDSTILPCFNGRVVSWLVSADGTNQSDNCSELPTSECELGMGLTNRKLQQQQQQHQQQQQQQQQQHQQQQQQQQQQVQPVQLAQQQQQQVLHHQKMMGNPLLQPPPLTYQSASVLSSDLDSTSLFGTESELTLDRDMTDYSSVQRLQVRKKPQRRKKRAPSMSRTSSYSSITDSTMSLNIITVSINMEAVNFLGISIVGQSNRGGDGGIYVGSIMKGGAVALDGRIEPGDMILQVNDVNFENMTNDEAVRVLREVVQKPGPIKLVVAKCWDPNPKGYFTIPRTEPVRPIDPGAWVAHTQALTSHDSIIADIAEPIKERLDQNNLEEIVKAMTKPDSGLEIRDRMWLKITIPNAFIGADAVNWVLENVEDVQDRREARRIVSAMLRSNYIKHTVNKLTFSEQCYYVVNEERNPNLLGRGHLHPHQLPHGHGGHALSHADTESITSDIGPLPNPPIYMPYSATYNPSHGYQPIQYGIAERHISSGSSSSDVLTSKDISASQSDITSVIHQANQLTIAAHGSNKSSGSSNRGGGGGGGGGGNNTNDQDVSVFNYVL

Chain of UniProt Q24279 (Q24279 entry or part of it): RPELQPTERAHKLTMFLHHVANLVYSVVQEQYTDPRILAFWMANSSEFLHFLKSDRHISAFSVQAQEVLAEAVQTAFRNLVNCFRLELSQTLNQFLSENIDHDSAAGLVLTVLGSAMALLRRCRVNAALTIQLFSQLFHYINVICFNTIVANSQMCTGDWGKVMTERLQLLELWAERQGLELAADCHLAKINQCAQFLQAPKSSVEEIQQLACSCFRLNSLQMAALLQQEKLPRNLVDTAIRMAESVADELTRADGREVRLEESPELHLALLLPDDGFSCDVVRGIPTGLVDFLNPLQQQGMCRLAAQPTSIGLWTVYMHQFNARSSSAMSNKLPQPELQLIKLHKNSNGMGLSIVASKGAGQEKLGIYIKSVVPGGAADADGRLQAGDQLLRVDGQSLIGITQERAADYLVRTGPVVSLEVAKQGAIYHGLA

Notch-ICN1, prey fusion (domain or fragment)
fold activation (β-galactosidase, against the empty vector) (fold activation) [1]: 40
fold activation (β-galactosidase, against the empty vector) (fold activation) [2]: 40

Notch-ICN2, prey fusion (domain or fragment)
fold activation (β-galactosidase, against the empty vector) (fold activation) [3]: 3
fold activation (β-galactosidase, against the empty vector) (fold activation) [1]: 20
fold activation (β-galactosidase, against the empty vector) (fold activation) [2]: 20
